Data published in publication PMC7335327.
pKd: −log10 of the molar value.

Tests used:
[1] = molecular target: biotinylated clamp loader complex ^bioχψτ3δδ’ (Escherichia coli K12) (UniProt P28905); assay: SPR
[2] = molecular target: DnaB^F102C (Escherichia coli K12) (UniProt P0ACB0); assay: cross-linking
[3] = molecular target: DnaB helicase, wild type (DnaB^wt) (Escherichia coli K12) (UniProt P0ACB0)
[4] = molecular target: DnaB^F102C (Escherichia coli K12) (UniProt P0ACB0)
DnaB (Escherichia coli) = DnaB (Escherichia coli) (UniProt P0ACB0); conditions: cited from earlier work

## DnaB^wt•DnaGC complex (from UniProt P0ACB0 1-471)
[1]
  pKd: 8.59

## DnaGC^R568C/C492L (domain or fragment)
[2]
  disulfide crosslinking efficiency: 100%
[3]
  fold weaker interaction than wild-type DnaGC: 30 fold

## DnaGC, C-terminal helicase-binding domain of DnaG primase (domain or fragment)
[4]
  fold less efficient interaction than with wild-type DnaB: 200 fold

## DnaG (from UniProt P0ABS5)
DnaB (Escherichia coli)
  pKd: 5.55
